Measured values published in patent publication US20220177587A1, “METHODS AND USES OF VARIANT CD80 FUSION PROTEINS AND RELATED CONSTRUCTS” (Alpine Immune Sciences, Inc., priority 2018, published 2022).
Where a chain is given by its changes, count along the chain named. In names and notes the source's numbering stands.

B1: A12V/S15F/Y31H/M38L/T41G/M43L/D90N/T130A/P137L/N149D/N152T (protein)
chain: VIHVTKEVKEVVTLFCGHNVSVEELAQTRIHWQKEKKLVLGMLSGDMNIWPEYKNRTIFDITNNLSIVILALRPSDEGTYECVVLKYEKNAFKREHLAEVTLSVKADFPTPSISDFEIPTSNIRRIICSASGGFPELHLSWLENGEELDAITTTVSQDPETELYAVSSKLDFNMTTNHSFMCLIKYGHLRVNQTFNWNTTKQEHFPDN
B2: A91G/T120S/I118V/T130A (protein)
chain: VIHVTKEVKEVATLSCGHNVSVEELAQTRIYWQKEKKMVLTMMSGDMNIWPEYKNRTIFDITNNLSIVILALRPSDEGTYECVVLKYEKDGFKREHLAEVTLSVKADFPTPSISDFEVPSSNIRRIICSASGGFPEPHLSWLENGEELNAINTTVSQDPETELYAVSSKLDFNMTTNHSFMCLIKYGHLRVNQTFNWNTTKQEHFPDN
B3: V22A/L70Q/S121P (protein)
chain: B2 chain with V22A, L70Q, G91A, V118I, S120T, S121P, A130T
modifications: CD80 v33 ECD
B4: D60V/A91G/I118V/T120S/T130A/K169E (protein)
chain: B2 chain with D60V, K169E
modifications: CD80 v137 ECD
B5: M38T/L70Q/E77G/A91G/I118V/T120S/T130A/N152T (protein)
chain: B2 chain with M38T, L70Q, E77G, N152T
B6: L70Q/A91G/T110A/I118V/T120S/T130A (protein)
chain: B2 chain with L70Q, T110A
modifications: CD80 v145 ECD
B7: A91G/S103P (protein)
chain: B2 chain with S103P, V118I, S120T, A130T
B8: E52G/L70Q/A91G/D107N/I118V/T1205/T130A/K169E (protein)
chain: B2 chain with E52G, L70Q, D107N, K169E
B9: K54M/L70Q/A91G/Y164H (protein)
chain: B2 chain with K54M, L70Q, V118I, S120T, A130T, Y164H, H188D
modifications: CD80 v138 ECD
B10: A91G/L102S (protein)
chain: B2 chain with L102S, V118I, S120T, A130T
B11: K36E/I67T/L70Q/A91G/I118V/T1205/T130A/N152T (protein)
chain: B2 chain with K36E, I67T, L70Q, N152T
B12: K89E/T130A (protein)
chain: B2 chain with K89E, G91A, V118I, S120T
modifications: CD80 v19 ECD
B13: R29H/E52G/D90N/I118V/T120S/T130A (protein)
chain: B2 chain with R29H, E52G, D90N, G91A
modifications: CD80 v142 ECD
B14: L65H/D90G/T110A/F116L (protein)
chain: B2 chain with L65H, D90G, G91A, T110A, F116L, V118I, S120T, A130T
modifications: CD80 v141 ECD
B15: M38V/T41D/M43I/W50G/D76G/V83A/K89E/I118V/T120S/I126V/T130A (protein)
chain: B2 chain with M38V, T41D, M43I, W50G, D76G, V83A, K89E, G91A, I126V
B16: L70Q/E81A/A91G/I118V/T120S/I127T/T130A (protein)
chain: B2 chain with L70Q, E81A, I127T
modifications: CD80 v131 ECD
B17: K37E/F595/L70Q/A91G/T120S/T130A (protein)
chain: B2 chain with K37E, F59S, L70Q, K185E
B18: L70Q/Y87N/A91G/T130A (protein)
chain: B2 chain with L70Q, Y87N, V118I, S120T
modifications: CD80 v12 ECD
B19: I67T/L70Q/A91G/I118V/T120S (protein)
chain: B2 chain with I67T, L70Q, A130T, N196H
modifications: CD80 v144 ECD
B20: L70R/A91G/I118V/T120S/T130A/T199S (protein)
chain: B2 chain with L70R, T199S
modifications: CD80 v130 ECD
B21: N63S/L70Q/A91G/S114T/I118V/T120S/T130A (protein)
chain: B2 chain with N63S, L70Q, S114T, H188D
modifications: CD80 v133 ECD
B22: A91G (protein)
chain: B2 chain with V118I, S120T, A130T
B23: R29H/E52G/L70R/E88G/A91G/T130A (protein)
chain: B2 chain with R29H, E52G, L70R, E88G, V118I, S120T
modifications: CD80 v24 ECD
B24: V68A/T110A (protein)
chain: B2 chain with V68A, G91A, T110A, V118I, S120T, A130T
modifications: CD80 v26 ECD
B25: Y31H/T41G/M43L/L70Q/A91G/I118V/T120S//I126V/T130A (protein)
chain: B2 chain with Y31H, T41G, M43L, L70Q, I126V
B26: T28S/L70Q/A91G/E95K/I118V/T120S/I126V/T130A/K169E (protein, UniProt P33681 35-288, looked up, variant T28S L70Q A91G E95K I118V T120S I126V T130A K169E)
T-lymphocyte activation …: VIHVTKEVKEVATLSCGHNVSVEELAQSRIYWQKEKKMVLTMMSGDMNIWPEYKNRTIFDITNNLSIVIQALRPSDEGTYECVVLKYEKDGFKRKHLAEVTLSVKADFPTPSISDFEVPSSNIRRVICSASGGFPEPHLSWLENGEELNAINTTVSQDPETELYAVSSELDFNMTTNHSFMCLIKYGHLRVNQTFNWNTTKQEHFPDNLLPSWAITLISVNGIFVICCLTYCFAPRCRERRRNERLRRESVRPV

System: human pan T cells
Assay: Anti-CD3 coimmobilization assay, IFN-gamma
Type: cell-based
Conditions: Table E32; variant ECD-Fc coimmobilized with anti-CD3; culture supernatant
In short: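 Plates coated overnight with 1 nM or 4 nM OKT3 anti-CD3 plus 1–80 nM rCD80.Fc variants, then washed. Purified human pan T cells or BC3 T cell clone (100,000/well) cultured 3 days in Ex-Vivo 15; supernatant IFN-gamma measured by ELISA.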

Row | Molecule | Coimmobilization with anti CD3 IFN-gamma [pg/mL]
1 | B1 | 104
2 | B2 | 276
3 | B3 | 105
4 | B4 | 120
5 | B5 | 119
6 | B6 | 77
7 | B7 | 124
8 | B8 | 94
9 | B9 | 152
10 | B10 | 75
11 | B11 | 53
12 | B12 | 204
13 | B13 | 124
14 | B14 | 129
15 | B15 | 82
16 | B16 | 98
17 | B17 | 109
18 | B18 | 136
19 | B19 | 1751
20 | B20 | 105
21 | B21 | 116
22 | B22 | 220
23 | B23 | 200
24 | B24 | 163
25 | B25 | 288
26 | B26 | 120

System: allogeneic CD4+ T cells
Assay: Mixed Lymphocyte Reaction (MLR), IFN-gamma
Type: cell-based, human
Conditions: Table E32; variant ECD-Fc in MLR assay; culture supernatant
Method: Soluble rCD80.Fc bioactivity was tested in a human Mixed Lymphocyte Reaction (MLR). Human primary dendritic cells (DC) were generated by culturing monocytes isolated from PBMC (BenTech Bio, USA) in vitro for 7 days with 500U/ml rIL-4 (R&D Systems, USA) and 250 U/ml rGM-CSF (R&D Systems, USA) in Ex-Vivo 15 media (Lonza, Switzerland). 10,000 matured DC and 100,000 purified allogeneic CD4+ T cells (BenTech Bio, USA) were co-cultured with variant CD80 Fc fusion proteins and controls in 96 well round bottom plates in 200 μl final volume of Ex-Vivo 15 media. On day 5, IFN-gamma secretion in culture supernatants was analyzed using the Human IFN-gamma Duoset ELISA kit (R&D Systems, USA). Optical density was measured by VMax ELISA Microplate Reader (Molecular Devices, USA) and quantitated against titrated rIFN-gamma standard included in the IFN-gamma Duo-set kit (R&D Systems, USA).

Row | Molecule | MLR IFN-gamma levels [pg/mL]
27 | B1 | 711
28 | B2 | 714
29 | B3 | 976
30 | B4 | 744
31 | B5 | 796
32 | B6 | 656
33 | B7 | 670
34 | B8 | 874
35 | B9 | 685
36 | B10 | 698
37 | B11 | 852
38 | B12 | 761
39 | B13 | 800
40 | B14 | 758
41 | B15 | 671
42 | B16 | 772
43 | B17 | 863
44 | B18 | 769
45 | B19 | 794
46 | B20 | 702
47 | B21 | 705
48 | B22 | 877
49 | B23 | 740
50 | B24 | 861
51 | B25 | 782
52 | B26 | 834
